± gives the standard deviation of the averaged measurements.
Experiments:
[1] = test system: VchCAST RNA-guided transposition machinery (E. coli BL21(DE3) host, lacZ target); assay: relative integration efficiency (T-RL orientation) vs wild-type transposon end (log2 (normalized fold change)); transposon end mutated: right end (5 bp flank + 75 bp right end); higher = more efficient transposition
Procedure, shortened: (§1)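 Each barcoded pool, 1549 left-end or 1849 right-end transposon variants in a pUC57 mini-transposon donor, went into E. coli BL21(DE3) with a T7-driven effector plasmid (CRISPR array, tniQ-cas8-cas7-cas6, tnsA-tnsB-tnsC). Plates contained 0.1 mM IPTG and were held at 37°C for 18 h. Input plasmids and genomic integration junctions were PCR-amplified and read by Illumina sequencing, with two biological output replicates and four reference barcodes. Relative integration efficiency is the fold change of output over input barcode abundance, normalised to the reference barcodes and log-transformed.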

[2] = test system: VchCAST RNA-guided transposition machinery (E. coli BL21(DE3) host, lacZ target); assay: relative integration efficiency (T-LR orientation) vs wild-type transposon end (log2 (normalized fold change)); transposon end mutated: right end (5 bp flank + 75 bp right end); higher = more efficient transposition
Procedure, shortened: as §1

Sequence | relative integration efficiency (log2) [1] | relative integration efficiency (log2) [2]
ACATTTGTTGATACAAAACGAAAATGATAATTACACCCATAAATTGATAATTATCACACCCATAAATTGATATTGCCTCTGATCATAGTCAGACCAACATTGCTACGACCCGTATTCGCACCGACAC | -3.95 ± 0.13 | -6.65 ± 0.98
ACATTTGTTGATACAAAACGCCCCGTCGCCGGCACAAACGCCCGGTCGCCGGCGACACAAACGCCCGGTCGCGGTAAGAGGATCATAGTCAGACCAACATTGCTACGACCCGTATTCGCACCGACAC | -7.52 ± 1 | -5.49 ± 0.46
ACATTTGTTGATACAAACATAAAATGATAATTACACACATAAATTGATAATTATCACACACATAAATTGATATTGCCTCTGATCATAGTCAGACCAACATTGCTACGACCCGTATTCGCACCGACAC | -1.41 ± 0.22 | -0.182 ± 0.14
ACATTTGTTGATACAACAATAAAATGATAATTACACCAATAAATTGATAATTATCACACCAATAAATTGATATTGCCTCTGATCATAGTCAGACCAACATTGCTACGACCCGTATTCGCACCGACAC | -0.726 ± 0.084 | -0.547 ± 0.67
ACATTTGTTGATACAACACGCAAATGATAATTACACCCATAAATTGATAATTATCACACCCATAAATTGATATTGCCTCTGATCATAGTCAGACCAACATTGCTACGACCCGTATTCGCACCGACAC | -4.368 ± 0.0069 | -4.89 ± 2.5
ACATTTGTTGATACAACACTAAAATGATAATTACACCCATAAATTGATAATTATCACACCCATAAATTGATATTGCCTCTGATCATAGTCAGACCAACATTGCTACGACCCGTATTCGCACCGACAC | -1.85 ± 0.15 | -2.04 ± 0.74
ACATTTGTTGATACAACCAAAAAATGATAATTACACCCAAAAATTGATAATTATCACACCCAAAAATTGATATTGCCTCTGATCATAGTCAGACCAACATTGCTACGACCCGTATTCGCACCGACAC | -0.669 ± 0.11 | 0.0409 ± 0.087
ACATTTGTTGATACAACCAAAAAATGATAATTACACCCATAAATTGATAATAATGACACCGAATTTAACTATAACGCTCTGATCATAGTCAGACCAACATTGCTACGACCCGTATTCGCACCGACAC | -1.3 ± 0.18 | 2.17 ± 0.081
ACATTTGTTGATACAACCAAAAAATGATAATTACACCCATAAATTGATAATGATGACACCGAATTTAACTATAACGCTCTGATCATAGTCAGACCAACATTGCTACGACCCGTATTCGCACCGACAC | -1.42 ± 0.27 | 2.11 ± 0.27
ACATTTGTTGATACAACCAAAAAATGATAATTACACCCATAAATTGATAATTGTGACACCGAATTTAACTATAACGCTCTGATCATAGTCAGACCAACATTGCTACGACCCGTATTCGCACCGACAC | -1.12 ± 0.18 | 2.44 ± 0.069
ACATTTGTTGATACAACCAATAAAAGATAATTACACCCATAAATTGATAATTGTGACACCGAATTTAACTATAACGCTCTGATCATAGTCAGACCAACATTGCTACGACCCGTATTCGCACCGACAC | -2 ± 0.21 | 1.26 ± 0.029
ACATTTGTTGATACAACCAATAAAAGATTAATACCCCCATTAATTGATAATTGTGACACCGAATTTAACTATAACGCTCTGATCATAGTCAGACCAACATTGCTACGACCCGTATTCGCACCGACAC | -5.12 ± 0.085 | -2.97 ± 0.16
ACATTTGTTGATACAACCAATAAAAGATTATTACCCCCATTAATTGATAATGATGACACCGAATTTAACTATAACGCTCTGATCATAGTCAGACCAACATTGCTACGACCCGTATTCGCACCGACAC | -4.62 ± 0.48 | -1.84 ± 0.29
ACATTTGTTGATACAACCAATAAATGATAAATACACCCATAAATTGATAATGATGACACCGAATTTAACTATAACGCTCTGATCATAGTCAGACCAACATTGCTACGACCCGTATTCGCACCGACAC | -1.58 ± 0.26 | 1.75 ± 0.069
ACATTTGTTGATACAACCAATAAATGATAATTACACCCATAAATTGATAATAATGACACCGAATTTAACTATAACGCTCTGATCATAGTCAGACCAACATTGCTACGACCCGTATTCGCACCGACAC | -1.44 ± 0.28 | 2.08 ± 0.21

Source: the supplement of paper PMC10201428
